We go through two substances from article PMC6874894.

For this data set, the system named is CTCF. As to the kind of experiment: EMSA. (In EMSA bound probe runs differently from free probe, usually more slowly.)

For 50 bp probe rs150502618-A, the binding signal (% increase in binding vs G allele (N1)) worked out at 15.

Turning to 230 bp probe rs150502618-A, the binding signal (% increase in binding vs G allele (N3)) came out at 8.
